Molecular target: T1, 1CARD-SUMO (caspase-1 CARD with carboxy-terminal SUMO, after TEV cleavage of MBP-1CARD-SUMO) (human, UniProt P29466 1-91)
T1 sequence (looked up): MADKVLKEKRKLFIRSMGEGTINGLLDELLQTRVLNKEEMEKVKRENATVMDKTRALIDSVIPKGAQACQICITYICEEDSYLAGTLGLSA
Assay: cross-linking

B1: SERPINB1, purified, amino-terminal SUMO cleaved (natural protein, human, UniProt P30740 1-379, looked up)
chain: MEQLSSANTRFALDLFLALSENNPAGNIFISPFSISSAMAMVFLGTRGNTAAQLSKTFHFNTVEEVHSRFQSLNADINKRGASYILKLANRLYGEKTYNFLPEFLVSTQKTYGADLASVDFQHASEDARKTINQWVKGQTEGKIPELLASGMVDNMTKLVLVNAIYFKGNWKDKFMKEATTNAPFRLNKKDRKTVKMMYQKKKFAYGYIEDLKCRVLELPYQGEELSMVILLPDDIEDESTGLKKIEEQLTLEKLHEWTKPENLDFIEVNVSLPRFKLEESYTLNSDLARLGVQDLFNSSKADLSGMSGARDIFISKIVHKSFVEVNEEGTEAAAATAGIATFCMLMPEENFTADHPFLFFIRHNSSGSILFLGRFSSP
Question: With B1 as the binder, how does the “fold decrease in 1CARD oligomer with SERPINB1 against without SERPINB1” value read?
Answer: Its value is 4.18 fold.

Question: And the “fold increase in 1CARD monomer with SERPINB1 against without SERPINB1” value?
Answer: Its value is 7.48 fold.

From paper PMC6450391 (Nature immunology, 2019)
